The supplement of paper PMC9170038

Tested on: MS2 coat protein
Experiment: apparent KD of MS2 coat protein; designed switch direction (-1 OFF switch, 1 ON switch): 1; higher = weaker reporter binding
Summary of the method: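 For each design, the apparent KD is the median over clusters of curves fitted to normalised cluster fluorescence. Clusters held RNA switches with common flanks, transcribed on Illumina chips by stalled E. coli RNA polymerase. These were titrated with SNAP-549-labelled MS2 coat protein, doubling from 0.7 or 1.5 nM to 3 µM, without input, with 200 uM small-molecule ligand, or with an oligonucleotide input.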

[1] = input ligand: microRNA oligo, concentration not stated
[2] = Eterna round: R95, input ligand: FMN 200 uM
[3] = Eterna round: R95, input ligand: microRNA oligo, concentration not stated
[4] = Eterna round: R95, input ligand: none

| Sequence | apparent KD of MS2 coat protein [1] [µM] | apparent KD of MS2 coat protein (input ligand: FMN 200 uM) [µM] | apparent KD of MS2 coat protein (input ligand: none) [µM] | apparent KD of MS2 coat protein [2] [µM] | apparent KD of MS2 coat protein [3] [µM] | apparent KD of MS2 coat protein [4] [µM] |
| --- | --- | --- | --- | --- | --- | --- |
| AUACAUGAGGAUCACCCAUGUAAUUAAUUAACUUGUAAGAUCAAGGAUAUCAGCUCGAUUAGAGCUGAGAAGGUGAUCACAUGU [SSNG3/21-C2] (Eterna round: R96, puzzle: Same State NG 3) | 0.116 | – | – | – | – | – |
| AUAGUUAGCAAAGGAUAUGGGAAAGGAAGUGUACCAGAAGGUUGGCUACUGGGCUUACAUGAGGAUCACCCAUGUCCCGGUAGC [PowerStrip SSNG 1.30] (Eterna round: R96, puzzle: Same State NG 1) | 0.0142 | 0.0146 | 0.0154 | – | – | – |
| AUAUGAGAAGCAGGAUAUGUGAAAAAAAAACAUACAGAAGGGUUUAUGGAAAAACAUGAGGAUCACCCAUGUUCUUUGUGAUGA [AK SSNG1-V2-1] (Eterna round: R96, puzzle: Same State NG 1) | 0.0296 | – | – | – | – | – |
| AUCAAAACAAGUUGCAGUGUUCGUCUUUCACAUGAGGAUCACCCAUGUAAUAGCCCAGUGGAAGCGCUCGGGCUACC [Esgevexe] (puzzle: Sensor for hsa-mir-208a) | – | – | – | 0.0387 | 0.0256 | 0.0479 |
| AUCCUACAUGAGGAUCACCCAUGUGACGCCUCAAUAGGAUAUCGGGCCCACAGUCGGGAACGAGAAGGAUUGAAGC [Beatonce] (puzzle: Same State 1) | – | – | – | 0.07 | 0.17 | 0.669 |
| AUGAAGAAUUAAGGAUAUUGAUUACAUAUGUUUAACAUGAGGAUCACCCAUGUGGGUUGCGGUAUCGAGAAGGUAAAUUACAAG [Mat - same State NG 2 - JL mod - D87] (Eterna round: R96, puzzle: Same State NG 2) | 0.132 | 0.177 | 0.187 | – | – | – |
| AUGCCCGUAGCACAGGAUAUCCGAGGCAAAACAUGAGGAUCACCCAUGUCAAACGAAAAUCCGAAGGAGAAGGGUGAACGGGCUC [Xeisquorat] (puzzle: Same State 2) | – | – | – | 0.012 | 0.0118 | 0.00959 |
| AUGUGUUUGCGAGGAUAUCGUUUGUUGAAGUUACGAGAAGGCGCUCACUUUACAUGAGGAUCACCCAUGUCUUUGAUGCAUGAU [JR_SSNG1_Sub073] (Eterna round: R96, puzzle: Same State NG 1) | 0.0402 | 0.0466 | 0.0441 | – | – | – |
| AUUAAACAUGAGGAUCACCCAUGUCAACAAAGUCGAGGAUAUGGGCAAAUAUAAUAAGAACCAGAAGGCGAAUAAU [salish99_ss1_r3_059] (puzzle: Same State 1) | – | – | – | 0.028 | 0.19 | 0.227 |
| AUUAAACAUGAGGAUCACCCAUGUCAACAAAGUCGAGGAUAUGGGCAUAUUAUCUUAUUUCCAGAAGGCGAAUAAU [salish99_ss1_r3_088] (puzzle: Same State 1) | – | – | – | – | 0.131 | – |
| AUUACUAACAUAGGAUAUCAUGCGAAAAUUGCGUGAGAAGGGUGGACGCUGUCAUUCACGGAGGACAUGAGGAUCACCCAUGUC [SameState NG1 #72] (Eterna round: R96, puzzle: Same State NG 1) | 0.103 | 0.264 | 0.143 | – | – | – |
| AUUAUCAAUGCAGGAUAUGAUUAACAUGAGGAUCACCCAUGUGGUGUUGUGAGUAAGGAGAGUGAUCAGAAGGGCAUUUUUUUU [JMF's solution 26] (Eterna round: R96, puzzle: Same State NG 2) | 0.261 | 0.575 | 0.475 | – | – | – |
| AUUAUUAAUGCAGGAUAUGAUUAACAUGAGGAUCACCCAUGUGGUGUUGUGAGUAAGGAGAGUGAUCAGAAGGGCAUCUUUUUU [JMF's solution 10] (Eterna round: R96, puzzle: Same State NG 2) | 0.312 | 0.47 | 0.359 | – | – | – |
| AUUAUUAAUGCAGGAUAUGAUUAACAUGAGGAUCACCCAUGUGGUGUUGUGAGUAAGGAGAGUGAUCAGAAGGGCAUUUUUUUA [JMF's solution 18] (Eterna round: R96, puzzle: Same State NG 2) | 0.44 | 0.653 | 0.479 | – | – | – |
| AUUAUUUAUGCAGGAUAUGAUUAACAUGAGGAUCACCCAUGUGGUGUUGUGAGUAAGGAGAGUGAUCAGAAGGGCAUUAUUUUU [JMF's solution 45] (Eterna round: R96, puzzle: Same State NG 2) | 0.214 | 0.634 | 0.355 | – | – | – |
| AUUAUUUAUGCAGGAUAUGAUUAACAUGAGGAUCACCCAUGUGGUGUUGUGAGUAAGGAGAGUGAUCAGAAGGGCAUUUUUUUU [JMF's solution 22] (Eterna round: R96, puzzle: Same State NG 2) | 0.377 | 0.673 | 0.447 | – | – | – |
| AUUGCUUUCGCAGGAUAUGAUGCGAAAAUUGCGUCAGAAGGGUGGAGUCUCUCAUUGCUAGAGGACAUGAGGAUCACCCAUGUC [SameState NG1 #85] (Eterna round: R96, puzzle: Same State NG 1) | 0.309 | 0.188 | 0.541 | – | – | – |
